Assays:
FGFR1 = FGFR1 (UniProt P11362); test: phosphorylation enrichment, bacterial display (enrichment ratio); higher = better substrate or ligand; peptides without Tyr show the background
c-Abl (mouse) = test: as above
FGFR3 = FGFR3 (UniProt P22607); test: as above
EPHB2 = EPHB2 (UniProt P29323); test: as above
Fer (mouse) = test: as above
c-Src = test: as above
AncSZ = test: as above
EPHB1 = EPHB1 (UniProt P54762); test: as above
Hck = Hck (UniProt P08631); test: as above
MERTK = MERTK (UniProt Q12866); test: as above
MERTK, sequence (Q12866 whole entry, looked up): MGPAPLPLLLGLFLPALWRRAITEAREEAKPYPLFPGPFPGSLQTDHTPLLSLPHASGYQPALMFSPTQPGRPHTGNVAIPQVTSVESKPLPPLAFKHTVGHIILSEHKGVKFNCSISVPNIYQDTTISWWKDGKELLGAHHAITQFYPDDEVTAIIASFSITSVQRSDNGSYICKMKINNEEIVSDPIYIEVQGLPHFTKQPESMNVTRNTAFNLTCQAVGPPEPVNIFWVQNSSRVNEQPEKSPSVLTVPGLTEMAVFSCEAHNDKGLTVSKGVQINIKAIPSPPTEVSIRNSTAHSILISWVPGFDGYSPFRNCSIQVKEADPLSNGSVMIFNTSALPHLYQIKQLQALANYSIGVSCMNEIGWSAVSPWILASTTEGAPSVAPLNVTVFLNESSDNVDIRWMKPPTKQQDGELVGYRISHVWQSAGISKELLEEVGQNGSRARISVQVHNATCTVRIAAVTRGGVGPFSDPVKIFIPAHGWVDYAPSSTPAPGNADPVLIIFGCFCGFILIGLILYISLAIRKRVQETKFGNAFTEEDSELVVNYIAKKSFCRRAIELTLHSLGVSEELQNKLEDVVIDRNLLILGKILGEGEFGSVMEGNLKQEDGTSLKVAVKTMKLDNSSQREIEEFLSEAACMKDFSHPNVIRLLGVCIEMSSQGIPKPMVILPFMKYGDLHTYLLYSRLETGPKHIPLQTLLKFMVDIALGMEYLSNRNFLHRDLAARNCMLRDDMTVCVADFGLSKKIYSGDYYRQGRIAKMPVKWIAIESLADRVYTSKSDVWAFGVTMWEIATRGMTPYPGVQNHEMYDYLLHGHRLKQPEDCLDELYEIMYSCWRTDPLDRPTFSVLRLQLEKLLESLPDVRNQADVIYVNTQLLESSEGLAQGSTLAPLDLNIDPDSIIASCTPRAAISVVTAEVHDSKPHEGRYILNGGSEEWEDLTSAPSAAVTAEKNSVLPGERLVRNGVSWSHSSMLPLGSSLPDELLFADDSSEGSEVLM

Fyn = Fyn (UniProt P06241); test: as above
Fyn, sequence (P06241 whole entry, looked up): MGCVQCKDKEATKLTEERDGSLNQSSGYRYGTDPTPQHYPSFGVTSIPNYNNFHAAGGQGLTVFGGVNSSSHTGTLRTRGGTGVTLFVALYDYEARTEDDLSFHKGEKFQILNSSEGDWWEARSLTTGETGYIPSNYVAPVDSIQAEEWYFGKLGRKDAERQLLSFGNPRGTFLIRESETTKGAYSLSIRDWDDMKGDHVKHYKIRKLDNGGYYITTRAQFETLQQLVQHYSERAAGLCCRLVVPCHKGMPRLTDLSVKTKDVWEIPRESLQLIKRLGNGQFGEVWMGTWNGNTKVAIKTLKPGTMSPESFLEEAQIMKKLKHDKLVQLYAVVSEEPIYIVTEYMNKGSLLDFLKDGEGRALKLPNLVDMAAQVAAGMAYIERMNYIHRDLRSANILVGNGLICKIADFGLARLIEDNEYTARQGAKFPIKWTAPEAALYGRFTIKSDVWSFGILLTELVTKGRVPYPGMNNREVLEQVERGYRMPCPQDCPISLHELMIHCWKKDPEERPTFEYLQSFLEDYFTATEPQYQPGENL

Fes = Fes (UniProt P07332); test: as above
Jak2 = Jak2 (UniProt O60674); test: as above
Jak2, sequence (O60674 whole entry, looked up): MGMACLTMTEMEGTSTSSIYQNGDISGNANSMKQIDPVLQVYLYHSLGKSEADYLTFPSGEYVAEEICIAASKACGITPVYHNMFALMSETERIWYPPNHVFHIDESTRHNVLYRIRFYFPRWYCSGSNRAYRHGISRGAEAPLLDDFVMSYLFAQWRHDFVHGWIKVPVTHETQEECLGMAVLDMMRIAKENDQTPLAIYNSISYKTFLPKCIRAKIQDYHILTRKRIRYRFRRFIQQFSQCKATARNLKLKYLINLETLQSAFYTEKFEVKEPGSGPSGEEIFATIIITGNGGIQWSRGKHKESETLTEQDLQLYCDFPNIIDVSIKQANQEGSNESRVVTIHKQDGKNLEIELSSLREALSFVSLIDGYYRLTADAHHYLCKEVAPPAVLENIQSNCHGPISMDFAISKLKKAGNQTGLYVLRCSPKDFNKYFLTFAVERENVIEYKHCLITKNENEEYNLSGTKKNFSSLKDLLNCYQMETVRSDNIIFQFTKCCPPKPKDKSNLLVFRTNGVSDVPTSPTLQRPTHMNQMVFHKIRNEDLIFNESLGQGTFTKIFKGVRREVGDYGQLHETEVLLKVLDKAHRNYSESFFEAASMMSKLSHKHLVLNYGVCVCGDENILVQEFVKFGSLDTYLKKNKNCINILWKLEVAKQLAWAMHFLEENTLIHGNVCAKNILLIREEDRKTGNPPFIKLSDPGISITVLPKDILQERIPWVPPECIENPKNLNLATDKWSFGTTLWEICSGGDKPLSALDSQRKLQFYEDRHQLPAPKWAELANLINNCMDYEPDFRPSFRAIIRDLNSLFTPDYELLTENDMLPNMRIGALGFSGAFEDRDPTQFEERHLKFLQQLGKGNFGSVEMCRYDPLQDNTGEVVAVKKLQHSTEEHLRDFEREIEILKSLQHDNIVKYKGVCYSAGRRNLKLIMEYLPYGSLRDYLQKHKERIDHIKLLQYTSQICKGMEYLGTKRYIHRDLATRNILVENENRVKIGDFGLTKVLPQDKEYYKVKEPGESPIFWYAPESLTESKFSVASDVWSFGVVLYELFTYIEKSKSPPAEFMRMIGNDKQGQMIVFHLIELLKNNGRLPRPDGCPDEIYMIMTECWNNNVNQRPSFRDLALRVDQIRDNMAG

SHP2-C SH2 = test: SH2 binding enrichment of the phosphorylated peptide, bacterial display (enrichment ratio); higher = better substrate or ligand; peptides without Tyr show the background
Grb2 SH2 = Grb2 SH2 (UniProt P62993); test: as above
Grb2 SH2, sequence (P62993 whole entry, looked up): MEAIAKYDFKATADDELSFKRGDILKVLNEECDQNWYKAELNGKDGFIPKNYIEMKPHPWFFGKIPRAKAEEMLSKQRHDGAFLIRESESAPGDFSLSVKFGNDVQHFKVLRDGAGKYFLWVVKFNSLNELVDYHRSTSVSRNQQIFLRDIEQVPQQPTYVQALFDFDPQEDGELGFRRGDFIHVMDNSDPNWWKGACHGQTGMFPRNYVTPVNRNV

c-Src SH2 = test: as above
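Throughout, for SH2 binding enrichment of the phosphorylated peptide, bacterial display: peptide library displayed on the E. coli surface as eCPX fusions, selected cells deep-sequenced, score is each peptide's frequency after selection divided by its frequency in the input.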
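Throughout, for phosphorylation enrichment, bacterial display: 11-residue human phosphosite peptides and single-mutation variants displayed on the E. coli surface, counted by deep sequencing, each peptide's frequency after selection divided by its frequency in the unselected input library; frequency after pTyr selection over input frequency; kinase dosed for 20-30% of maximal phosphorylation in three min.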

FGFR3, sequence (P22607 whole entry, looked up): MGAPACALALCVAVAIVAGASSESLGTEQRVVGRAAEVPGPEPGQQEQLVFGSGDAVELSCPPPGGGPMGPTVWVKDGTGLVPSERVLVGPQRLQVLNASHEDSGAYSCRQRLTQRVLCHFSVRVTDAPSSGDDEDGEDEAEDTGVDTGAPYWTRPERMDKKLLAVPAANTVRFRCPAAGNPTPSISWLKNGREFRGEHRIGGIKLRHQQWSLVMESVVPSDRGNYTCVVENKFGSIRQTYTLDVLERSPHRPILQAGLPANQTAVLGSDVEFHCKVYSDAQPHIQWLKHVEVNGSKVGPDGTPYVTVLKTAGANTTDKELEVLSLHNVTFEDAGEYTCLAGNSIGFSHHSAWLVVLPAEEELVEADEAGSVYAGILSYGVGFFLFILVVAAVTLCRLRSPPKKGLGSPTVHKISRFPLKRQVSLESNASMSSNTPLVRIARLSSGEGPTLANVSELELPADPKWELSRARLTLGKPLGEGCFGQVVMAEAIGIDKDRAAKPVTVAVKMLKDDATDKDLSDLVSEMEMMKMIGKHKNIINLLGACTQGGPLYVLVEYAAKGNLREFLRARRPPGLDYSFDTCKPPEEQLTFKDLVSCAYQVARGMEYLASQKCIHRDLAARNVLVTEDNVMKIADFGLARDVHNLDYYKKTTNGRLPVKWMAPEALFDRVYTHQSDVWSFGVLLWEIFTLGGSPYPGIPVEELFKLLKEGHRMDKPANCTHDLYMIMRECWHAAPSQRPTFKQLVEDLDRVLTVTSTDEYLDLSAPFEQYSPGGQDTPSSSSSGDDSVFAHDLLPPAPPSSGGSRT
EPHB2, sequence (P29323 whole entry, looked up): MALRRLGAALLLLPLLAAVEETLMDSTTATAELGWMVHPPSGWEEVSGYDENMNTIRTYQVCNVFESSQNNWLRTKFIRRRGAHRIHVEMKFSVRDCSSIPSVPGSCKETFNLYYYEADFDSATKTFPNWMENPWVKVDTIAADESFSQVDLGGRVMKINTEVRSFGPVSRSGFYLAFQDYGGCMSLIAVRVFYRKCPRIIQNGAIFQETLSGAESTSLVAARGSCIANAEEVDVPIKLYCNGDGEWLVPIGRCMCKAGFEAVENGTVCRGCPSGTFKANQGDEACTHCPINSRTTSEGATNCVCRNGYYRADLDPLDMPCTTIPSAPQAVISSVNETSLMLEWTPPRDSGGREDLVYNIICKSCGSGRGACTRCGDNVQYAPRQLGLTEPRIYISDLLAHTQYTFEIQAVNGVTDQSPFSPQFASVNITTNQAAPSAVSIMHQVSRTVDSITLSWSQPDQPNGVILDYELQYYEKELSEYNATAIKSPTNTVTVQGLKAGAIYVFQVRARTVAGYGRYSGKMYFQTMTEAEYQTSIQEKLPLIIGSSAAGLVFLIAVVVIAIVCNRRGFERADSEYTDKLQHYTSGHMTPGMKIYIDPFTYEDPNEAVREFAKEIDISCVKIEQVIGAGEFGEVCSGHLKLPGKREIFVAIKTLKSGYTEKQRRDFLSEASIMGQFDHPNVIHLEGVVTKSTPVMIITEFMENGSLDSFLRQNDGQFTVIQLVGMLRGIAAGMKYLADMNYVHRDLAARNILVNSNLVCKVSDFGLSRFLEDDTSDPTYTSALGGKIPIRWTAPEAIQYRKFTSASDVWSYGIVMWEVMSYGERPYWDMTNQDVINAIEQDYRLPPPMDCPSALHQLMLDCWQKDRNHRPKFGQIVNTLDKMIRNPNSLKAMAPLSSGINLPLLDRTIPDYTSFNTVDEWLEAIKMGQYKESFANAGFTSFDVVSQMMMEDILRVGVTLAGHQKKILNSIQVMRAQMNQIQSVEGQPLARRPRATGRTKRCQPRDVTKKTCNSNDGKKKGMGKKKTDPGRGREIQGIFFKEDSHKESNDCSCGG

Sequence | phosphorylation enrichment (FGFR1) | phosphorylation enrichment (c-Abl (mouse)) | phosphorylation enrichment (FGFR3) | phosphorylation enrichment (EPHB2) | phosphorylation enrichment (Fer (mouse)) | phosphorylation enrichment (c-Src) | phosphorylation enrichment (AncSZ) | phosphorylation enrichment (EPHB1) | phosphorylation enrichment (Hck) | phosphorylation enrichment (MERTK) | phosphorylation enrichment (Fyn) | phosphorylation enrichment (Fes) | phosphorylation enrichment (Jak2) | SH2 binding enrichment (SHP2-C SH2) | SH2 binding enrichment (Grb2 SH2) | SH2 binding enrichment (c-Src SH2)
GRVLGYGTFGK [FLT4_Y853_A855T] | 0.338 | 0.533 | 0.414 | 0.538 | 0.393 | 0.623 | 0.553 | 0.372 | 0.417 | 0.369 | 0.543 | 0.633 | 0.617 | 0.7 | 1.01 | 0.725
TEALYYTDDPA [ADPRS_Y75_T79P] | 5.2 | 1.09 | 5.62 | 0.882 | 1.92 | 2.59 | 1.97 | 1.2 | 1.79 | 6.2 | 1.91 | 1.82 | 1.06 | 0.48 | 0.513 | 0.797
PESIPYRKFTT [NTRK1_Y701_L700P] | 0.594 | 0.879 | 0.936 | 0.668 | 0.353 | 0.485 | 0.823 | 0.598 | 0.721 | 0.86 | 0.375 | 0.917 | 0.992 | 0.507 | 0.747 | 0.476
NVTRKYSRQIL [MAP3K2_Y463_T464S] | 0.363 | 0.399 | 0.352 | 0.317 | 0.402 | 0.403 | 0.425 | 0.356 | 0.361 | 0.344 | 0.491 | 0.446 | 0.417 | 0.607 | 1.06 | 0.508
PSELYYSKIGP [SMG1_Y2254] | 12.9 | 3.88 | 8.9 | 2.91 | 16.3 | 10.8 | 2.07 | 5.13 | 18.8 | 23.8 | 8.78 | 1.68 | 4.02 | 2.26 | 0.666 | 5.62
QMIETYFDFRL [NSMF_Y506] | 7.65 | 1.62 | 5.67 | 1.36 | 0.622 | 8.42 | 2.67 | 3.62 | 5.25 | 2.65 | 6.04 | 2.56 | 6.57 | 0.659 | 1.29 | 0.384
LREKVYASLEA [RXRA_Y397] | 0.84 | 5.68 | 0.944 | 0.862 | 0.892 | 6.94 | 1.63 | 0.823 | 2.9 | 2.22 | 6.2 | 1.9 | 1.21 | 1.28 | 0.665 | 0.75
PADCRYYAFPQ [GAMT_Y222] | 10.9 | 5.14 | 8.15 | 12.2 | 10.4 | 4.71 | 3.91 | 12.1 | 3.84 | 14.4 | 2.3 | 1.7 | 6.5 | 0.847 | 0.898 | 3.02
